Measurements taken from patent US20160264649A1.

Assays:
Assay in all cases: cell-based or functional assay
[1] = biological target: HIV-1 Env of isolate 92UG001 (subtype D) (HIV-1)
[2] = biological target: HIV-1 Env of isolate 92UG005 (subtype D) (HIV-1)
[3] = biological target: HIV-1 Env of isolate 92UG024 (subtype D) (HIV-1)
[4] = biological target: HIV-1 Env of isolate 92UG046 (subtype D) (HIV-1)
[5] = biological target: HIV-1 Env of isolate 92UG114 (subtype D) (HIV-1)
[6] = biological target: HIV-1 Env of isolate 98CN006 (subtype CRF08_BC) (HIV-1)
[7] = biological target: HIV-1 Env of isolate 98CN009 (subtype CRF07_BC) (HIV-1)
[8] = biological target: HIV-1 Env of isolate MGRM-D-001 (subtype D) (HIV-1)
[9] = biological target: HIV-1 Env of isolate MGRM-D-002 (subtype D) (HIV-1)
[10] = biological target: HIV-1 Env of isolate MGRM-D-003 (subtype D) (HIV-1)
[11] = biological target: HIV-1 Env of isolate MGRM-D-004 (subtype D) (HIV-1)
[12] = biological target: HIV-1 Env of isolate MGRM-D-005 (subtype D) (HIV-1)
[13] = biological target: HIV-1 Env of isolate MGRM-D-008 (subtype D) (HIV-1)
[14] = biological target: HIV-1 Env of isolate MGRM-D-011 (subtype D) (HIV-1)
[15] = biological target: HIV-1 Env of isolate MGRM-D-012 (subtype D) (HIV-1)
[16] = biological target: HIV-1 Env of isolate MGRM-D-013 (subtype D) (HIV-1)
[17] = biological target: HIV-1 Env of isolate MGRM-D-014 (subtype D) (HIV-1)
[18] = biological target: HIV-1 Env of isolate MGRM-D-016 (subtype D) (HIV-1)
[19] = biological target: HIV-1 Env of isolate MGRM-D-018 (subtype D) (HIV-1)
[20] = biological target: HIV-1 Env of isolate MGRM-D-019 (subtype D) (HIV-1)
[21] = biological target: HIV-1 Env of isolate MGRM-D-020 (subtype D) (HIV-1)
[22] = biological target: HIV-1 Env of isolate MGRM-D-021 (subtype D) (HIV-1)
[23] = biological target: HIV-1 Env of isolate MGRM-D-022 (subtype D) (HIV-1)
[24] = biological target: HIV-1 Env of isolate MGRM-D-024 (subtype D) (HIV-1)
[25] = biological target: HIV-1 Env of isolate MGRM-D-026 (subtype D) (HIV-1)
[26] = biological target: HIV-1 Env of isolate MGRM-D-028 (subtype D) (HIV-1)
[27] = biological target: HIV-1 Env of isolate MGRM-D-029 (subtype D) (HIV-1)
[28] = biological target: HIV-1 Env of isolate MGRM-F1-004 (subtype F) (HIV-1)
[29] = biological target: HIV-1 Env of isolate MGRM-F1-006 (subtype F) (HIV-1)
[30] = biological target: HIV-1 Env of isolate MGRM-F1-008 (subtype F) (HIV-1)
[31] = biological target: HIV-1 Env of isolate MGRM-F1-010 (subtype F) (HIV-1)
[32] = biological target: HIV-1 Env of isolate MGRM-F1-012 (subtype F) (HIV-1)
[33] = biological target: HIV-1 Env of isolate MGRM-F1-013 (subtype F) (HIV-1)
[34] = biological target: HIV-1 Env of isolate MGRM-F1-014 (subtype F) (HIV-1)
[35] = biological target: HIV-1 Env of isolate MGRM-F1-015 (subtype F) (HIV-1)
[36] = biological target: HIV-1 Env of isolate MGRM-F1-016 (subtype F) (HIV-1)
[37] = biological target: HIV-1 Env of isolate MGRM-F1-017 (subtype F) (HIV-1)
[38] = biological target: HIV-1 Env of isolate MGRM-F1-018 (subtype F) (HIV-1)
[39] = biological target: HIV-1 Env of isolate MGRM-F1-020 (subtype F) (HIV-1)
[40] = biological target: HIV-1 Env of isolate MGRM-F1-021 (subtype F) (HIV-1)
[41] = biological target: HIV-1 Env of isolate MGRM-F1-022 (subtype F) (HIV-1)
[42] = biological target: HIV-1 Env of isolate MGRM-F1-023 (subtype F) (HIV-1)
[43] = biological target: HIV-1 Env of pseudovirus isolate MGRM-G-001 (subtype G) (HIV-1)
[44] = biological target: HIV-1 Env of pseudovirus isolate MGRM-G-004 (subtype G) (HIV-1)
[45] = biological target: HIV-1 Env of pseudovirus isolate MGRM-G-006 (subtype G) (HIV-1)
[46] = biological target: HIV-1 Env of pseudovirus isolate MGRM-G-009 (subtype G) (HIV-1)
[47] = biological target: HIV-1 Env of pseudovirus isolate MGRM-G-011 (subtype G) (HIV-1)
[48] = biological target: HIV-1 Env of pseudovirus isolate MGRM-G-013 (subtype G) (HIV-1)
[49] = biological target: HIV-1 Env of pseudovirus isolate MGRM-G-014 (subtype G) (HIV-1)
[50] = biological target: HIV-1 Env of pseudovirus isolate MGRM-G-015 (subtype G) (HIV-1)
[51] = biological target: HIV-1 Env of pseudovirus isolate MGRM-G-016 (subtype G) (HIV-1)
[52] = biological target: HIV-1 Env of pseudovirus isolate MGRM-G-017 (subtype G) (HIV-1)
[53] = biological target: HIV-1 Env of pseudovirus isolate MGRM-G-019 (subtype G) (HIV-1)
[54] = biological target: HIV-1 Env of pseudovirus isolate MGRM-G-024 (subtype G) (HIV-1)
[55] = biological target: HIV-1 Env of pseudovirus isolate MGRM-G-025 (subtype G) (HIV-1)
[56] = biological target: HIV-1 Env of pseudovirus isolate MGRM-G-027 (subtype G) (HIV-1)
[57] = biological target: HIV-1 Env of pseudovirus isolate MGRM-G-028 (subtype G) (HIV-1)
[58] = biological target: envelope of aMLV pseudovirus (negative control)

B1: PGT-123 (antibody, V domains shown)
VH: QLHLQESGPGLVKPPETLSLTCSVSGASINDAYWSWIRQSPGKRPEWVGYVHHSGDTNYNPSLKRRVTFSLDTAKNEVSLKLVDLTAADSATYFCARALHGKRIYGIVALGELFTYFYMDVWGKGTAVTVSS
VL: SSMSVSPGETAKISCGKESIGSRAVQWYQQKPGQPPSLIIYNNQDRPAGVPERFSASPDFRPGTTATLTITNVDAEDEADYYCHIYDARGGTNWVFDRGTTLTVL
For B1, the IC50 (neutralization) [1] was > 50 µg/mL, the IC50 (neutralization) [2] was 9.79 µg/mL and the IC50 (neutralization) [3] was > 50 µg/mL. For the same binder, the IC50 (neutralization) [4] was > 50 µg/mL, the IC50 (neutralization) [5] was 0.005 µg/mL and the IC50 (neutralization) [6] was 0.008 µg/mL. The IC50 (neutralization) [7] was 0.007 µg/mL, the IC50 (neutralization) [8] was 0.147 µg/mL and the IC50 (neutralization) [9] was 0.012 µg/mL. The IC50 (neutralization) [10] was 3.74 µg/mL, the IC50 (neutralization) [11] was > 50 µg/mL and the IC50 (neutralization) [12] was > 50 µg/mL. For the same binder, the IC50 (neutralization) [13] was > 50 µg/mL, the IC50 (neutralization) [14] was 0.012 µg/mL and the IC50 (neutralization) [15] was > 50 µg/mL. For the same binder, the IC50 (neutralization) [16] was > 50 µg/mL, the IC50 (neutralization) [17] was 0.009 µg/mL and the IC50 (neutralization) [18] was > 50 µg/mL. The IC50 (neutralization) [19] was 0.007 µg/mL, the IC50 (neutralization) [20] was > 50 µg/mL and the IC50 (neutralization) [21] was 0.018 µg/mL. For the same binder, the IC50 (neutralization) [22] was 11.1 µg/mL, the IC50 (neutralization) [23] was > 50 µg/mL and the IC50 (neutralization) [24] was 0.023 µg/mL. The IC50 (neutralization) [25] was > 50 µg/mL, the IC50 (neutralization) [26] was 0.132 µg/mL and the IC50 (neutralization) [27] was > 50 µg/mL. For the same binder, the IC50 (neutralization) [28] was 1.78 µg/mL, the IC50 (neutralization) [29] was 6.89 µg/mL and the IC50 (neutralization) [30] was > 50 µg/mL. The IC50 (neutralization) [31] was 0.016 µg/mL, the IC50 (neutralization) [32] was 22.2 µg/mL and the IC50 (neutralization) [33] was 0.08 µg/mL. The IC50 (neutralization) [34] was 0.111 µg/mL, the IC50 (neutralization) [35] was > 50 µg/mL and the IC50 (neutralization) [36] was 4.95 µg/mL. For the same binder, the IC50 (neutralization) [37] was > 50 µg/mL, the IC50 (neutralization) [38] was 0.054 µg/mL and the IC50 (neutralization) [39] was 0.051 µg/mL. For the same binder, the IC50 (neutralization) [40] was 0.307 µg/mL, the IC50 (neutralization) [41] was 0.075 µg/mL and the IC50 (neutralization) [42] was 0.053 µg/mL. The IC50 [43] was 0.009 µg/mL, the IC50 [44] was 0.181 µg/mL and the IC50 [45] was > 50 µg/mL. The IC50 [46] was 33.5 µg/mL, the IC50 [47] was 14.9 µg/mL and the IC50 [48] was 3.97 µg/mL. The IC50 [49] was 0.005 µg/mL, the IC50 [50] was > 50 µg/mL and the IC50 [51] was > 50 µg/mL. For the same binder, the IC50 [52] was 0.026 µg/mL, the IC50 [53] was 0.008 µg/mL and the IC50 [54] was 0.032 µg/mL. The IC50 [55] was 0.046 µg/mL, the IC50 [56] was 0.182 µg/mL and the IC50 [57] was 0.008 µg/mL. The IC50 [58] was > 50 µg/mL.

B2: PGT-125 (antibody, V domains shown)
VH: QSQLQESGPRLVEASETLSLTCNVSGESTGACTYFWGWVRQAPGKGLEWIGSLSHCQSFWGSGWTFHNPSLKSRLTISLDTPKNQVFLKLTSLTAADTATYYCARFDGEVLVYNHWPKPAWVDLWGRGIPVTVSS
VL: QSALTQPPSASGSPGQSITISCNGTATNFVSWYQQFPDKAPKLIIFGVDKRPPGVPDRFSGSRSGTTASLTVSRLQTDDEAVYYCGSLVGNWDVIFGGGTTLTVL
For B2, the IC50 (neutralization) [1] was > 50 µg/mL, the IC50 (neutralization) [2] was > 50 µg/mL and the IC50 (neutralization) [3] was > 50 µg/mL. The IC50 (neutralization) [4] was > 50 µg/mL, the IC50 (neutralization) [5] was 0.349 µg/mL and the IC50 (neutralization) [6] was 0.201 µg/mL. It also gave an IC50 (neutralization) [7] of 0.03 µg/mL, an IC50 (neutralization) [8] of 2.84 µg/mL and an IC50 (neutralization) [9] of 0.118 µg/mL. For the same binder, the IC50 (neutralization) [10] was 0.065 µg/mL, the IC50 (neutralization) [11] was 0.371 µg/mL and the IC50 (neutralization) [12] was > 50 µg/mL. The IC50 (neutralization) [13] was > 50 µg/mL, the IC50 (neutralization) [14] was 0.008 µg/mL and the IC50 (neutralization) [15] was > 50 µg/mL. For the same binder, the IC50 (neutralization) [16] was > 50 µg/mL, the IC50 (neutralization) [17] was 0.12 µg/mL and the IC50 (neutralization) [18] was > 50 µg/mL. For the same binder, the IC50 (neutralization) [19] was 0.049 µg/mL, the IC50 (neutralization) [20] was > 50 µg/mL and the IC50 (neutralization) [21] was 0.015 µg/mL. For the same binder, the IC50 (neutralization) [22] was 0.04 µg/mL, the IC50 (neutralization) [23] was > 50 µg/mL and the IC50 (neutralization) [24] was > 50 µg/mL. The IC50 (neutralization) [25] was > 50 µg/mL, the IC50 (neutralization) [26] was > 50 µg/mL and the IC50 (neutralization) [27] was > 50 µg/mL. The IC50 (neutralization) [28] was 0.035 µg/mL, the IC50 (neutralization) [29] was 0.361 µg/mL and the IC50 (neutralization) [30] was > 50 µg/mL. The IC50 (neutralization) [31] was > 50 µg/mL, the IC50 (neutralization) [32] was > 50 µg/mL and the IC50 (neutralization) [33] was > 50 µg/mL. The IC50 (neutralization) [34] was > 50 µg/mL, the IC50 (neutralization) [35] was > 50 µg/mL and the IC50 (neutralization) [36] was > 50 µg/mL. For the same binder, the IC50 (neutralization) [37] was > 50 µg/mL, the IC50 (neutralization) [38] was > 50 µg/mL and the IC50 (neutralization) [39] was > 50 µg/mL. For the same binder, the IC50 (neutralization) [40] was > 50 µg/mL, the IC50 (neutralization) [41] was > 50 µg/mL and the IC50 (neutralization) [42] was 0.012 µg/mL. The IC50 [43] was 0.033 µg/mL, the IC50 [44] was > 50 µg/mL and the IC50 [45] was > 50 µg/mL. The IC50 [46] was > 50 µg/mL, the IC50 [47] was > 50 µg/mL and the IC50 [48] was > 50 µg/mL. The IC50 [49] was 0.007 µg/mL, the IC50 [50] was > 50 µg/mL and the IC50 [51] was > 50 µg/mL. The IC50 [52] was > 50 µg/mL, the IC50 [53] was > 50 µg/mL and the IC50 [54] was > 50 µg/mL. The IC50 [55] was > 50 µg/mL, the IC50 [56] was 34.4 µg/mL and the IC50 [57] was 0.012 µg/mL. For the same binder, the IC50 [58] was > 50 µg/mL.
